The values below come from US20250084169A1.

Read-outs that look alike come from different tables or passages of the source.

The target in assay [1] is cynomolgus monkey Fc gamma receptor CD64 (cynomolgus monkey).
For assay [2] the target is unchanged. This is another data set of the same source.
In assay [3] the target is cynomolgus monkey Fc gamma receptor CD32a (cynomolgus monkey).
For assay [4] the target is unchanged. This is another data set of the same source.
Assay [5] deals with cynomolgus monkey Fc gamma receptor CD32b (cynomolgus monkey).

By Kd is commonly meant the constant that tells how readily two partners part at equilibrium.

Sequence of Tafasitamab-cxix (research grade biosimilar) (antibody) (heavy): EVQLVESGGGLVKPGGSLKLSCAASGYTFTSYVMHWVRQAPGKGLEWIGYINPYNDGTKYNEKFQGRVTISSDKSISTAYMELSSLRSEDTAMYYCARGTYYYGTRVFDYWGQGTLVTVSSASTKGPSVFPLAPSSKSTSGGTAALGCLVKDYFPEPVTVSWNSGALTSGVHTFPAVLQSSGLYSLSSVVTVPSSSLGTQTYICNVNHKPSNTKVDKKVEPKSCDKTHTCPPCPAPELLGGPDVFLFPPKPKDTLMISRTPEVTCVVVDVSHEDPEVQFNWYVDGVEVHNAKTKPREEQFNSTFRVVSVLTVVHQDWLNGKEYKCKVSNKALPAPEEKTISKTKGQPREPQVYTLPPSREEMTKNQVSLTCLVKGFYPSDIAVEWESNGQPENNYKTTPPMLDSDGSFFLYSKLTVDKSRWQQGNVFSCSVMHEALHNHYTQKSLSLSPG
Sequence of Tafasitamab-cxix (research grade biosimilar) (antibody) (light): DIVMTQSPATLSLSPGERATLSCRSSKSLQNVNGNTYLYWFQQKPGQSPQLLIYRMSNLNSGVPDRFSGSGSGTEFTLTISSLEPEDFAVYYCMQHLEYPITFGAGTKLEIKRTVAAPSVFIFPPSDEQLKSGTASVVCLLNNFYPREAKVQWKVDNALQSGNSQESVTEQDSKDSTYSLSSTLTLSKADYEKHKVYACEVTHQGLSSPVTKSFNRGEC

Regarding “Tafasitamab-cxix (research grade biosimilar) (antibody)”, the results for the Kd in assay [1] and in assay [2] were 1.8 nM and under 0.02 nM, respectively.
For “FMC59-S239D/I332E (huFMC63-S239D/I332E) (antibody)”, in that order: 1 nM and under 0.02 nM.
As to Rituximab (antibody), the Kd in assay [3] was 5940 nM; in assay [4] it was 3130 nM; in assay [5] it was 1460 nM; in assay [2], under 0.02 nM.
